# Data: the RNAGym collection of RNA variant scans (doi:10.1101/gr.219683.116)
# B1: mRNA-splicing (parent)
# chain: AGUUGCUGCUGGGAGCUCCAGCACAGUGAAAUGGACAGAAGGGCAGAGCAA
# Variants of: B1
# Assay: exon inclusion enrichment index; higher = more inclusion; WT1 exon 5 minigene, HEK293
row,Variant,exon inclusion enrichment index
1,AGUUACCACCGGGAGCUCCAGCACAGUGAAAUGGACAGAAGGUGAGAGCAA,0.5
2,AGUUACCACCGGGAGCUCCAGCACAGUGAAAUGGACACAAGGGCAGAGCAA,1.83
3,AGUUACCACCGGGAGCUCCAGCACAGUGAAAUGGACAUAAGGGCAGAGCAA,0.919
4,AGUUACCACCGGGAGCUCCAGCACAGUGAAAUGGACAAAAGGGCAGAGCAA,1.25
5,AGUUACCACCGGGAGCUCCAGCACAGCUAAAUGGACAGAAGGGCAGAGCAA,1.74
6,AGUUACCACCGGGAGCUCCAGCACAGCCAAAUGGACAGAAGGGCAGAGCAA,2.7
7,AGUUACCACCGGGAGCUCCAGCACAGCAAAAUGGACAGAAGGGCAGAGCAA,2.31
8,AGUUACCACCGGGAGCUCCAGCACAGUGAAAUGGACAGAAGGCGAGAGCAA,4.39
9,AGUUACCACCGGGAGCUCCAGCACAGUGAAAUGGACAGAAGGCAAGAGCAA,3.61
10,AGUUACCACCGGGAGCUCCAGCACAGUGAAAUGGACAGAAGGCUAGAGCAA,1.59
11,AGUUACCACCGGGAGCUCCAGCACAGUGAAAAAGACAGAAGGGCAGAGCAA,1.05
12,AGUUACCACCGGGAGCUCCAGCACAGUGAAAAUGACAGAAGGGCAGAGCAA,1.68
13,AGUUACCACCGGGAGCUCCAGCACAGUGAAAACGACAGAAGGGCAGAGCAA,2.91
14,AGUUACCACCGGGAGCUCCAGCACAGUGAAAUGGACAGAAGCACAGAGCAA,3
15,AGUUACCACCGGGAGCUCCAGCACAGUGAAAUGGACAGAAGCUCAGAGCAA,3.18
16,AGUUACCACCGGGAGCUCCAGCACAGUGAAAUGGACAGAAGCCCAGAGCAA,3.5
17,AGUUACCACCGGGAGCUCCAGCACAGUGAAAUGGACAUGAGGGCAGAGCAA,1.15
18,AGUUACCACCGGGAGCUCCAGCACAGUGAAAUGGACAUCAGGGCAGAGCAA,1.83
19,AGUUACCACCGGGAGCUCCAGCACAGUGAAAUGGACAUUAGGGCAGAGCAA,0.126
20,AGUUACCACCGGGAGCUCCAGCACAGUGAAAUGGACAGAAGGGCACAGCAA,2.03
21,AGUUACCACCGGGAGCUCCAGCACAGUGAAAUGGACAGAAGGGCAAAGCAA,2.32
22,AGUUACCACCGGGAGCUCCAGCACAGUGAAAUGGACAGAAGGGCAUAGCAA,1.6
23,AGUUACCACCGGGAGCAUCAGCACAGUGAAAUGGACAGAAGGGCAGAGCAA,1.52
24,AGUUACCACCGGGAGCAACAGCACAGUGAAAUGGACAGAAGGGCAGAGCAA,1.29
25,AGUUACCACCGGGAGCAGCAGCACAGUGAAAUGGACAGAAGGGCAGAGCAA,2
26,AGUUACCACCGGGAGCUCCAGCACAGUGAAAUGGACAGAAGGACAGAGCAA,4.17

row,Variant,exon inclusion enrichment index
1,AGUUACCACCGGGAGCUCCAGCACAGUGAAAUGGACAGAAGGCCAGAGCAA,2.52
2,AGUUACCACCGGGAGCUCCAGCACAGUGAAAUGGACAGAAGGUCAGAGCAA,1.89
3,AGUUACCACCGGGAGCUCCAGCACAGUGAAAUGGACAACAGGGCAGAGCAA,1.95
4,AGUUACCACCGGGAGCUCCAGCACAGUGAAAUGGACAAGAGGGCAGAGCAA,2.26
5,AGUUACCACCGGGAGCUCCAGCACAGUGAAAUGGACAAUAGGGCAGAGCAA,0.204
6,AGUUACCACCGGGAGCUCCAGCACAGUGAAAUGGACAGAAGACCAGAGCAA,4.19
7,AGUUACCACCGGGAGCUCCAGCACAGUGAAAUGGACAGAAGAACAGAGCAA,4.61
8,AGUUACCACCGGGAGCUCCAGCACAGUGAAAUGGACAGAAGAUCAGAGCAA,4.5
9,AGUUACCACCGGGAGCUCCAGCACAGUGAAACGGACAGAAGGGCAGAGCAA,3.88
10,AGUUACCACCGGGAGCUCCAGCACAGUGAAAGGGACAGAAGGGCAGAGCAA,0.244
11,AGUUACCACCGGGAGCUCCAGCACAGUGAAAAGGACAGAAGGGCAGAGCAA,1.87
12,AGUUACCACCGGGAGCUCCAGCACAGUGAAACUGACAGAAGGGCAGAGCAA,1.75
13,AGUUACCACCGGGAGCUCCAGCACAGUGAAACCGACAGAAGGGCAGAGCAA,3.24
14,AGUUACCACCGGGAGCUCCAGCACAGUGAAACAGACAGAAGGGCAGAGCAA,1.18
15,AGUUACCACCGGGAGCUCCAGCACAGUGAAAUGGACAGAAGGGCAUUGCAA,2.48
16,AGUUACCACCGGGAGCUCCAGCACAGUGAAAUGGACAGAAGGGCAUCGCAA,2.94
17,AGUUACCACCGGGAGCUCCAGCACAGUGAAAUGGACAGAAGGGCAUGGCAA,1.85
18,AGUUACCACCGGGAGCUCCAGCACAGUGAAAUGGACAGAAGGGCAGAACAA,2.99
19,AGUUACCACCGGGAGCUCCAGCACAGUGAAAUGGACAGAAGGGCAGACCAA,2.4
20,AGUUACCACCGGGAGCUCCAGCACAGUGAAAUGGACAGAAGGGCAGAUCAA,2.83
21,AGUUACCACGCGGAGCUCCAGCACAGUGAAAUGGACAGAAGGGCAGAGCAA,2.55
22,AGUUACCACGAGGAGCUCCAGCACAGUGAAAUGGACAGAAGGGCAGAGCAA,2.46
23,AGUUACCACCGGGAGCUCCAGCACAGUGAAAUGGACAGAAAGGCAGAGCAA,1.44
24,AGUUACCACCGGGAGCUCCAGCACAGUGAAAUGGACAGAACGGCAGAGCAA,3.34
25,AGUUACCACCGGGAGCUCCAGCACAGUGAAAUGGACAGAAUGGCAGAGCAA,2.09
